Data taken from article PMC13376610, “Nanobody-mediated control of long RSH Rel and RelA catalysis by restriction of their conformational landscape” (Nature Communications, 2026).
Substitutions are numbered along the chain they refer to. Read-outs that look alike come from different tables or passages of the source. Values belong to the molecule of their own block, whether it stands above or below them.

How the values were obtained:
RelCt^NTD = target: T1, RelCt^NTD (Chlorobaculum tepidum, UniProt Q8KC80); assay: ITC; format: binding; conditions: 15 °C, pH 7.5, 10 mM MgCl2, no nanobody; SYNTH active site; non-hydrolysable ATP analogue; also crystal structure with GDP (2.65 Å)
T1 construct: gene relA; N-terminal catalytic region (HD + SYNTH domains), C-terminal regulatory domains removed; N-terminal His-TEV tag cleaved; recombinant, gene from GenScript
T1 sequence (Q8KC80 1-390 limits assumed): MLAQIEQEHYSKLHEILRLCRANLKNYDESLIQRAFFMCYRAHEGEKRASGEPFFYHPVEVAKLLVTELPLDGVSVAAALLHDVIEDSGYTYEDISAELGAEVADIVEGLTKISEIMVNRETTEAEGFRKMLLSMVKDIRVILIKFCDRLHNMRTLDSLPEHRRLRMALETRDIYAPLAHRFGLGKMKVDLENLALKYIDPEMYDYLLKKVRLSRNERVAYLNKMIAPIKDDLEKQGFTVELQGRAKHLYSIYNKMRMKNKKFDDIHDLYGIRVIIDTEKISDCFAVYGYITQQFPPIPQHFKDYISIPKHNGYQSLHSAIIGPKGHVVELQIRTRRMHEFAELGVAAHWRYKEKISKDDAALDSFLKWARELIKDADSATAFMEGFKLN

[1] = target: T2, RelCt^NTD, N-terminal catalytic region of C. tepidum Rel (Chlorobaculum tepidum); assay: ITC
T2 chain: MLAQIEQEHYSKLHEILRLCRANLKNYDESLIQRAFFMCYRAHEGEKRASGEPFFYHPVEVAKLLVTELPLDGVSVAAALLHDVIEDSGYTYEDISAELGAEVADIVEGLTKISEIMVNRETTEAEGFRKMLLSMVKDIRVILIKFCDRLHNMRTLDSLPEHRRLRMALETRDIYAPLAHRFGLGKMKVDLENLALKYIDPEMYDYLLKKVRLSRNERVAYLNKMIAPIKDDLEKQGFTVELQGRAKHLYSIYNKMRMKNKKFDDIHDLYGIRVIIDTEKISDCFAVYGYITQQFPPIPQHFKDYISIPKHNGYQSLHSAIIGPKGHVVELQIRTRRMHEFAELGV

[2] = target: T3, full-length Rel from Chlorobaculum tepidum (Chlorobaculum tepidum TLS, UniProt Q8KC80); assay: ITC; nanobody titrated into the RSH enzyme in the cell; Affinity-ITC, 15 °C, 2 μL injections, stirring 75 r.p.m., triplicate; mean KD ± SD; conditions: both partners purified
T3 construct: Rel, bifunctional (p)ppGpp synthetase/hydrolase (long RSH), Chlorobaculum tepidum, full length; PDB 9S6K and 9S6L hold the NTD of this protein; also called RelCt; RelACt (as printed once); source: construct generated by GenScript

[3] = target: T3, full-length Rel from Chlorobaculum …; assay: cell-based or functional assay
RelCt^K280A = target: T4, RelCt^K280A (Chlorobaculum tepidum); assay: ITC
T4 chain: T2 chain with K280A

RelCt^Y290A = target: T5, RelCt^Y290A (Chlorobaculum tepidum); assay: ITC
T5 chain: T2 chain with Y290A

RelCt^D283A [4] = target: T6, RelCt^D283A (Chlorobaculum tepidum); assay: ITC
T6 chain: T2 chain with D283A

RelCt^A286K = target: T7, RelCt^A286K (Chlorobaculum tepidum); assay: ITC
T7 chain: T2 chain with A286K

RelCt^D283A [5] = target: T6, RelCt^D283A; assay: ITC
full-length E. coli RelA = target: T8, full-length E. coli RelA (Escherichia coli (K-12 entry), UniProt P0AG20); assay: ITC; nanobody titrated into the RSH enzyme in the cell; Affinity-ITC, 15 °C, 2 μL injections, stirring 75 r.p.m., triplicate; mean KD ± SD; conditions: both partners purified
T8 construct: RelA, long RSH (p)ppGpp synthetase, Escherichia coli, full length; also called RelAEc; source: construct generated by GenScript

[6] = target: T9, RelCt^NTD, N-terminal catalytic region of C. tepidum Rel (Chlorobaculum tepidum TLS); assay: HDX-MS; RelCt^NTD alone against its complex with the nanobody, 50 to 70 μM; labelling 0.5, 5 or 60 min at 20 °C in 50 mM HEPES, 500 mM KCl, 500 mM NaCl, 2 mM MgCl2, 1 mM TCEP, 0.002% mellitic acid (pD 7.5); triplicate; conditions: both partners purified
T9 construct: Rel, Chlorobaculum tepidum, N-terminal catalytic region (HD and SYNTH domains); His-TEV tag removed with TEV protease; source: recombinant, purified (HisTrap, SEC, TEV cleavage, reverse IMAC, SEC); construct generated by GenScript; not shown: His tag, N-terminal, cleaved
T9 chain: T2 chain

[7] = target: RelCt^R215E (Chlorobaculum tepidum); assay: ITC; nanobody titrated into the RSH enzyme in the cell; Affinity-ITC, 15 °C, 2 μL injections, stirring 75 r.p.m., triplicate; mean KD ± SD

T8 sequence (P0AG20 whole entry): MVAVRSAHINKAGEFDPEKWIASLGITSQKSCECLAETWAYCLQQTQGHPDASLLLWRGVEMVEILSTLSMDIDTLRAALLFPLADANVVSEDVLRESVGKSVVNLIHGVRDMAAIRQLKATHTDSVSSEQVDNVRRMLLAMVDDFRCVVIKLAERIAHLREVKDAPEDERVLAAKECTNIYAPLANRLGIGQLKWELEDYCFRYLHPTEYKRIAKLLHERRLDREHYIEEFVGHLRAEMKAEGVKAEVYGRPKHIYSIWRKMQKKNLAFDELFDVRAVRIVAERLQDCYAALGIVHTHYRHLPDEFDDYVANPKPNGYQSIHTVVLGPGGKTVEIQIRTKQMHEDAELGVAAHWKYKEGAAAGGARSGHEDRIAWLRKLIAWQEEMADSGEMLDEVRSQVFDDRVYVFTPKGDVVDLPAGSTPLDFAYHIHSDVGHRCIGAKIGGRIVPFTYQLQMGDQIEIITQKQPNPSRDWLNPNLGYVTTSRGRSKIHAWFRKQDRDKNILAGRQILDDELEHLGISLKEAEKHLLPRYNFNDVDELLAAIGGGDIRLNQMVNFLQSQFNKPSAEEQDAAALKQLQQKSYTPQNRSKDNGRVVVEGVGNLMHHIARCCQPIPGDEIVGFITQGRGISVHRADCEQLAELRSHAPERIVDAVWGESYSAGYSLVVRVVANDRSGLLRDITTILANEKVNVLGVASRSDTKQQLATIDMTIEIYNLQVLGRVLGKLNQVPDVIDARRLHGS

Molecule: Nc1ncnc2c1ncn2[C@@H]1O[C@H](COP(=O)(O)CP(=O)(O)OP(=O)(O)O)[C@@H](O)[C@H]1O [APCPP]
Kd (RelCt^NTD): 37900 nM

B1: Nb898 (VHH)
VHH: QVQLQESGGGLVQAGGSLRLSCAASGSIESINAMAWYRQAPGKPRELVAVIAKSDGSTTYAVPVKGRFTISRDDAKNTVYLQMNSLKPEDTAIYYCNKIPNFTYWGQGTQVTVSS
notes: llama nanobody selected against C. tepidum Rel; Expressed from the pMESy4 plasmid; source: E. coli WK6, periplasmic extraction, purified (Ni-NTA IMAC, SEC)
Kd [1]: 190 nM
Kd [2]: 186 nM
SYNTH activity (turnover of ppGpp synthesis) of RelCt in the presence of Nb898, HPLC [3]: ~11 fold

B3: Nb94 (VHH)
VHH: QVQLVESGGGMVQPGGSLRLSCAASGFTFSTYSMGWFRQAPGQEREFVAAISWSGDSAYYADSVKGRFTISRDNAKNTVYLQMNSLKFEDTAVYYCNADLDGLGYDYWGQGTQVTVS
notes: llama nanobody selected against E. coli RelA; Expressed from the pMESy4 plasmid; also called nanobody 94; source: E. coli WK6, periplasmic extraction, purified (Ni-NTA IMAC, SEC)
Kd (full-length E. coli RelA): 13 nM

B6: Nb96 (VHH)
VHH: QVQLQESGGGLVQAGGSLRLSCAASGSIFDIKVMAWYRQAPGKSRELVAVHASADDSTTYEKSVKGRFTISRDNAKNTVYLQMNSLKPEDTAIYYCNRIPNFTHWGQGTQVTVS
notes: llama nanobody selected against E. coli RelA; Expressed from the pMESy4 plasmid; also called nanobody 96; source: E. coli WK6, periplasmic extraction, purified (Ni-NTA IMAC, SEC)
Kd (full-length E. coli RelA): 80 nM

Further lines, results first:

Kd (RelCt^K280A): 2200 nM
Kd (RelCt^Y290A): 1100 nM
Kd (RelCt^D283A [4]): 201 nM
Kd (RelCt^A286K): 12000 nM
Kd (RelCt^D283A [5]): 200 nM
B2: Nb898 (VHH)
VHH: B1 VHH
modifications: form not printed for this variant; NTD taken because the methods purify 'RelCtNTD and variants' (full length possible); limits from 9S6K entity

binding result (full-length E. coli RelA): no binding
B4: Nb120 (VHH)
VHH: QVQLVESGGGLVQPGGSLRLSCAASGTIRSLNAMAWYRQAPGKERELAARISSGGTTTYADSVKGRFTISRDNAKNTLYLQMNSLKPEDTAVYYCKANRFSTYGYRDDIWGQGTQVTVS
notes: control nanobody selected against a different target; also called control Nb120; source: E. coli WK6, periplasmic extraction, purified (Ni-NTA IMAC, SEC)

binding result [6]: binds
fold drop in affinity against unsubstituted RelCt [7]: 28 fold
Kd [2]: 21 nM
HD (ppGpp hydrolase) activity of RelCt in the presence of Nb585, HPLC [3]: 2 fold
B5: Nb585 (VHH)
VHH: QVQLQESGGGLVQAGGSLRLSCAASGFTFEDYTIGWFRQAPGKEREGVSLISNSDGFTSYADSVKGQFTISSENAKNTVYLQMDNLKPEDTAVYYCAATEVLAHLMWRPSNWGYWGQGTQVTV
notes: llama nanobody selected against C. tepidum Rel; Expressed from the pMESy4 plasmid; also called nanobody 585; source: E. coli WK6, periplasmic extraction, purified (Ni-NTA IMAC, SEC)
